Reference: US20040009897A1

Legend:
[1] = molecular target: human recombinant soluble CD4 (human) (UniProt P01730); test: competitive ELISA on rsCD4; competitor mAb B4-HRP; unlabelled mAb B4 at 20 µg/mL, positive control run with week 9 sera
[2] = molecular target: human recombinant soluble CD4 (human) (UniProt P01730); test: competitive ELISA on rsCD4; competitor mAb B4-HRP; unlabelled mAb B4 at 2.0 µg/mL, positive control run with week 9 sera
[3] = molecular target: human recombinant soluble CD4 (human) (UniProt P01730); test: competitive ELISA on rsCD4; competitor mAb B4-HRP; unlabelled mAb B4 at 20 µg/mL, positive control run with week 11 sera
[4] = molecular target: human recombinant soluble CD4 (human) (UniProt P01730); test: competitive ELISA on rsCD4; competitor mAb B4-HRP; unlabelled mAb B4 at 20 µg/mL, positive control run with week 17 sera
[5] = molecular target: human recombinant soluble CD4 (human) (UniProt P01730); test: competitive ELISA on rsCD4; competitor mAb B4-HRP; unlabelled mAb B4 at 2.0 µg/mL, positive control run with week 11 sera
[6] = molecular target: human recombinant soluble CD4 (human) (UniProt P01730); test: competitive ELISA on rsCD4; competitor mAb B4-HRP; unlabelled mAb B4 at 2.0 µg/mL, positive control run with week 17 sera

- % Inhibition [1]: 63%
- % Inhibition [2]: 23.5%
- % Inhibition [3]: 63%
- % Inhibition [4]: 48.7%
- % Inhibition [5]: 11.7%
- % Inhibition [6]: 11.7%
Substance: mAb B4 (anti-binding site monoclonal antibody), unlabelled, purified
